B1: Cell death abnormality protein 1 (Caenorhabditis elegans), Q9XWD6 (parent)
chain: MRLILLVLLATWQVVVDTRAPTFPDKLTQQLQQQGTTEPQGDHVCTVKTIVDDYELKKVIHTVVYNDTEQCLNPLTGFQCTVEKRGQKASYQRQLVKKEKYVKQCCDGYYQTKDHFCLPDCNPPCKKGKCIEPGKCECDPGYGGKYCASSCSVGTWGLGCSKSCDCENGANCDPELGTCICTSGFQGERCEKPCPDNKWGPNCVKSCPCQNGGKCNKEGKCVCSDGWGGEFCLNKCEEGKFGAECKFECNCQNGATCDNTNGKCICKSGYHGALCENECSVGFFGSGCTQKCDCLNNQNCDSSSGECKCIGWTGKHCDIGCSRGRFGLQCKQNCTCPGLEFSDSNASCDAKTGQCQCESGYKGPKCDERKCDAEQYGADCSKTCTCVRENTLMCAPNTGFCRCKPGFYGDNCELACSKDSYGPNCEKQAMCDWNHASECNPETGSCVCKPGRTGKNCSEPCPLDFYGPNCAHQCQCNQRGVGCDGADGKCQCDRGWTGHRCEHHCPADTFGANCEKRCKCPKGIGCDPITGECTCPAGLQGANCDIGCPEGSYGPGCKLHCKCVNGKCDKETGECTCQPGFFGSDCSTTCSKGKYGESCELSCPCSDASCSKQTGKCLCPLGTKGVSCDQKCDPNTFGFLCQETVTPSPCASTDPKNGVCLSCPPGSSGIHCEHNCPAGSYGDGCQQVCSCADGHGCDPTTGECICEPGYHGKTCSEKCPDGKYGYGCALDCPKCASGSTCDHINGLCICPAGLEGALCTRPCSAGFWGNGCRQVCRCTSEYKQCNAQTGECSCPAGFQGDRCDKPCEDGYYGPDCIKKCKCQGTATSSCNRVSGACHCHPGFTGEFCHALCPESTFGLKCSKECPKDGCGDGYECDAAIGCCHVDQMSCGKAKQEFEALNGAGRSTGLTWFFVLLIVALCGGLGLIALFYRNKYQKEKDPDMPTVSFHKAPNNDEGREFQNPLYSRQSVFPDSDAFSSENNGNHQGGPPNGLLTLEEEELENKKIHGRSAAGRGNNDYASLDEVAGEGSSSSASASASRRGLNSSEQSRRPLLEEHDEEEFDEPHENSISPAHAVTTSNHNENPYADISSPDPVTQNSANKKRAQDNLYT
partner: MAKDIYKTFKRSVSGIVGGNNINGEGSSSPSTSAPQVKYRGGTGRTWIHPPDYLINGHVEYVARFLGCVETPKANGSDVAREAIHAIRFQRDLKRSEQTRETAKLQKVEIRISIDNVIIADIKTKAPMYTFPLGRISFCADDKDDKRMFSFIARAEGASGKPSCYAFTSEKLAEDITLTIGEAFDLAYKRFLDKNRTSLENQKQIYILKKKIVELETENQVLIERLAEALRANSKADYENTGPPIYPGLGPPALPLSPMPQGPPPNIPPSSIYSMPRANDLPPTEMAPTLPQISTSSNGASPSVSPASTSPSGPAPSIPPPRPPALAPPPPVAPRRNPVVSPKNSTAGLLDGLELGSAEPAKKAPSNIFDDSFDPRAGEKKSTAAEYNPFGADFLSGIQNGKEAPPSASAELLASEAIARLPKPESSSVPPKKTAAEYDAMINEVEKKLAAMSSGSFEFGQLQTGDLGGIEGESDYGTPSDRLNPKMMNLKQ
B2: Cell death abnormality protein 1 (Caenorhabditis elegans), Q9XWD6 (parent)
chain: B1 chain
partner: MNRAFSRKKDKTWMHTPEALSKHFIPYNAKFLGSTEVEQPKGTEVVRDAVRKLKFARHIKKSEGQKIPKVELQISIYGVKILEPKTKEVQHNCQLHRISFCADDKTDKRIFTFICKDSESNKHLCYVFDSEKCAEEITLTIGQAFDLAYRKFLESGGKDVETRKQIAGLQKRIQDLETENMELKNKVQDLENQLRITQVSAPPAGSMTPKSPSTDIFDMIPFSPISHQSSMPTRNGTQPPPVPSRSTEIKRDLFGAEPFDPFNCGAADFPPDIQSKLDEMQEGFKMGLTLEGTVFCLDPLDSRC

Variants of: B1
Settings: with ced6_caeel ced-6, O76337
N962A was tested, and the “effect of a mutation on the interaction” value was “disrupting interaction strength”.

Variants of: B2
Settings: with gulp1_human GULP1, Q9UBP9
In the case of N962A, the “effect of a mutation on the interaction” value is reported as “disrupting interaction strength”.

— IntAct's records for PubMed 11729193
